B2: TR4-Fc fusion protein (Fc fusion)
chain: ATIKLHDQSIGTQQWEHSPLGELCPPGSHRSERPGACNRCTEGVGYTNASNNLFACLPCTACKSDEEERSPCTTTRNTACQCKPGTFRNDNSAEMCRKCSTGCPRGMVKVKDCTPWSDIECVHKESGNGHNI
notes: not shown: Fc region

The target in assay [1] is B2. Description: competition ELISA, inhibition of biotinylated TRAIL binding to captured TR4-Fc; assay 2. How it is done: (§1) Goat anti-human Fc was diluted to 0.1 micrograms/ml in coating buffer. The Immulon 4 microplate was coated with 100 microliters per well of the Goat anti-human Fc solution and incubated overnight at 4° C. The coating solution was decanted from the plate, and blocking solution was dispensed at 200 microliters per well. The plate was incubated at room temperature for 1 hour. After the 1 hour incubation period, the blocking solution was decanted from the plate and 1 microgram/mL of TR4-Fc was dispensed at 100 microliters/well and incubated for 2 hours at room temperature. After the incubation, the plate was washed five times manually using a Wheaton manifold.
(§2) Hybridoma supernatants were (previously) prepared in a low binding dilution plate using diluent. The supernatants were prepared in duplicate and were diluted from the stock concentration with 2.5 fold dilutions for the 7 subsequent wells. If a purified form of the antibody was available, the starting concentration was 5 micrograms/mL. The positive control (TR4-Fc) was diluted from 5 micrograms/mL. 100 microliters was transferred into the ELISA plate and pre-incubated for 30 minutes at room temperature. […]
(§3) After the one-hour incubation, the plate was decanted and washed with PBST five times and blotted. […] The plate was immediately read at 450 nm using the spectrometer from Molecular Devices.
Background: An ELISA detects its analyte on a solid surface through an enzyme-linked reagent.

Assay [2] addresses B2. Description: competition ELISA, inhibition of biotinylated TRAIL binding to captured TR4-Fc; assay 1. How it is done:
as §1, §2, §3

Assay [3] concerns the target T1, Biotinylated TRAIL (Homo sapiens (Human), UniProt P50591 114-281, limits assumed, biotinylated (sites not given)). Description: competition ELISA, soluble TR4 (TR4-Fc positive control) competing with captured TR4-Fc for biotinylated TRAIL; assay 2. How it is done:
as §1, §2, §3

Assay [4] deals with T1, Biotinylated TRAIL. Description: competition ELISA, soluble TR4 (TR4-Fc positive control) competing with captured TR4-Fc for biotinylated TRAIL; assay 1. How it is done: as §1, §2, §3

Data on 2 molecules can be found in patent publication US20070292411A1 (Human Genome Sciences, published 2007).

T1 sequence (P50591 114-281 limits assumed): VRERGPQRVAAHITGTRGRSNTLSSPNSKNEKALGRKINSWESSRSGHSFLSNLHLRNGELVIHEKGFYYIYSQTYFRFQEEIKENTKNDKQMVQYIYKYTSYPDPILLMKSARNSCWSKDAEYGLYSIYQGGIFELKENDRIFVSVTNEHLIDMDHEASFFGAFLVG

B1: monoclonal antibody 7.1.3 (antibody, V domains shown)
VH: QVQLVQSGAEVKKPGASVKVSCKASGYTFTNYDINWVRQAPGQGLEWMGISAYTGNTNYAQKLQGRVTMTTDTSTSTAYMELRSLRSDDTAVYYCVRDYHDSNGYYYFDYWGQGTLVTVS
VL: DIQMIQSPLSLPVIPGEPASMSCRSSRSLLHSNGNNYLEWYLQKPGQSPQLLIYLGSNRASGVPDRFSGSGSGTDFTLKISRVEAEDVGIYYCMQGLQLPWTFGGTKVIKR
As to B1, the IC50 (in general, the concentration needed to halve the response being measured) in assay [1] worked out at 0.068 µg/mL; in assay [2], 0.152 µg/mL.
With B2, the IC50 in assay [3] is 0.284 µg/mL; in assay [4], 0.491 µg/mL.
